Reference: paper doi:10.1101/2021.05.10.443400 (bioRxiv, 2021)

B1: Human GST-Flag-Orc6, full length (natural protein, UniProt Q9Y5N6 1-252, looked up)
chain: MGSELIGRLAPRLGLAEPDMLRKAEEYLRLSRVKCVGLSARTTETSSAVMCLDLAASWMKCPLDRAYLIKLSGLNKETYQSCLKSFECLLGLNSNIGIRDLAVQFSCIEAVNMASKILKSYESSLPQTQQVDLDLSRPLFTSAALLSACKILKLKVDKNKMVATSGVKKAIFDRLCKQLEKIGQQVDREPGDVATPPRKRKKIVVEAPAKEMEKVEEMPHKPQKDEDLTQDYEEWKRKILENAASAQKATAE
B2: Human Flag-MutLα (MLH1-PMS2 complex), purified (complex)
chain 1: MSFVAGVIRRLDETVVNRIAAGEVIQRPANAIKEMIENCLDAKSTSIQVIVKEGGLKLIQIQDNGTGIRKEDLDIVCERFTTSKLQSFEDLASISTYGFRGEALASISHVAHVTITTKTADGKCAYRASYSDGKLKAPPKPCAGNQGTQITVEDLFYNIATRRKALKNPSEEYGKILEVVGRYSVHNAGISFSVKKQGETVADVRTLPNASTVDNIRSIFGNAVSRELIEIGCEDKTLAFKMNGYISNANYSVKKCIFLLFINHRLVESTSLRKAIETVYAAYLPKNTHPFLYLSLEISPQNVDVNVHPTKHEVHFLHEESILERVQQHIESKLLGSNSSRMYFTQTLLPGLAGPSGEMVKSTTSLTSSSTSGSSDKVYAHQMVRTDSREQKLDAFLQPLSKPLSSQPQAIVTEDKTDISSGRARQQDEEMLELPAPAEVAAKNQSLEGDTTKGTSEMSEKRGPTSSNPRKRHREDSDVEMVEDDSRKEMTAACTPRRRIINLTSVLSLQEEINEQGHEVLREMLHNHSFVGCVNPQWALAQHQTKLYLLNTTKLSEELFYQILIYDFANFGVLRLSEPAPLFDLAMLALDSPESGWTEEDGPKEGLAEYIVEFLKKKAEMLADYFSLEIDEEGNLIGLPLLIDNYVPPLEGLPIFILRLATEVNWDEEKECFESLSKECAMFYSIRKQYISEESTLSGQQSEVPGSIPNSWKWTVEHIVYKALRSHILPPKHFTEDGNILQLANLPDLYKVFERC
chain 2: MERAESSSTEPAKAIKPIDRKSVHQICSGQVVLSLSTAVKELVENSLDAGATNIDLKLKDYGVDLIEVSDNGCGVEEENFEGLTLKHHTSKIQEFADLTQVETFGFRGEALSSLCALSDVTISTCHASAKVGTRLMFDHNGKIIQKTPYPRPRGTTVSVQQLFSTLPVRHKEFQRNIKKEYAKMVQVLHAYCIISAGIRVSCTNQLGQGKRQPVVCTGGSPSIKENIGSVFGQKQLQSLIPFVQLPPSDSVCEEYGLSCSDALHNLFYISGFISQCTHGVGRSSTDRQFFFINRRPCDPAKVCRLVNEVYHMYNRHQYPFVVLNISVDSECVDINVTPDKRQILLQEEKLLLAVLKTSLIGMFDSDVNKLNVSQQPLLDVEGNLIKMHAADLEKPMVEKQDQSPSLRTGEEKKDVSISRLREAFSLRHTTENKPHSPKTPEPRRSPLGQKRGMLSSSTSGAISDKGVLRPQKEAVSSSHGPSDPTDRAEVEKDSGHGSTSVDSEGFSIPDTGSHCSSEYAASSPGDRGSQEHVDSQEKAPKTDDSFSDVDCHSNQEDTGCKFRVLPQPTNLATPNTKRFKKEEILSSSDICQKLVNTQDMSASQVDVAVKINKKVVPLDFSMSSLAKRIKQLHHEAQQSEGEQNYRKFRAKICPGENQAAEDELRKEISKTMFAEMEIIGQFNLGFIITKLNEDIFIVDQHATDEKYNFEMLQQHTVLQGQRLIAPQTLNLTAVNEAVLIENLEIFRKNGFDFVIDENAPVTERAKLISLPTSKNWTFGPQDVDELIFMLSDSPGVMCRPSRVKQMFASRACRKSVMIGTALNTSEMKKLITHMGEMDHPWNCPHGRPTMRHIANLGVISQN
B3: GST-Flag-Orc6 middle TFIIB (TFIIB-B) domain (94-187) (domain or fragment, human, UniProt Q9Y5N6 94-187, looked up)
chain: SNIGIRDLAVQFSCIEAVNMASKILKSYESSLPQTQQVDLDLSRPLFTSAALLSACKILKLKVDKNKMVATSGVKKAIFDRLCKQLEKIGQQVD

Tests used:
[1] = molecular target: T1, Human MutSα (MSH2-MSH6 complex), purified (human, UniProt P43246 1-934; P52701 1-1360); test: pull-down
[2] = molecular target: T1, Human MutSα (MSH2-MSH6 complex), …; test: co-IP

T1 sequence (P43246 whole entry, chain 1 of 2): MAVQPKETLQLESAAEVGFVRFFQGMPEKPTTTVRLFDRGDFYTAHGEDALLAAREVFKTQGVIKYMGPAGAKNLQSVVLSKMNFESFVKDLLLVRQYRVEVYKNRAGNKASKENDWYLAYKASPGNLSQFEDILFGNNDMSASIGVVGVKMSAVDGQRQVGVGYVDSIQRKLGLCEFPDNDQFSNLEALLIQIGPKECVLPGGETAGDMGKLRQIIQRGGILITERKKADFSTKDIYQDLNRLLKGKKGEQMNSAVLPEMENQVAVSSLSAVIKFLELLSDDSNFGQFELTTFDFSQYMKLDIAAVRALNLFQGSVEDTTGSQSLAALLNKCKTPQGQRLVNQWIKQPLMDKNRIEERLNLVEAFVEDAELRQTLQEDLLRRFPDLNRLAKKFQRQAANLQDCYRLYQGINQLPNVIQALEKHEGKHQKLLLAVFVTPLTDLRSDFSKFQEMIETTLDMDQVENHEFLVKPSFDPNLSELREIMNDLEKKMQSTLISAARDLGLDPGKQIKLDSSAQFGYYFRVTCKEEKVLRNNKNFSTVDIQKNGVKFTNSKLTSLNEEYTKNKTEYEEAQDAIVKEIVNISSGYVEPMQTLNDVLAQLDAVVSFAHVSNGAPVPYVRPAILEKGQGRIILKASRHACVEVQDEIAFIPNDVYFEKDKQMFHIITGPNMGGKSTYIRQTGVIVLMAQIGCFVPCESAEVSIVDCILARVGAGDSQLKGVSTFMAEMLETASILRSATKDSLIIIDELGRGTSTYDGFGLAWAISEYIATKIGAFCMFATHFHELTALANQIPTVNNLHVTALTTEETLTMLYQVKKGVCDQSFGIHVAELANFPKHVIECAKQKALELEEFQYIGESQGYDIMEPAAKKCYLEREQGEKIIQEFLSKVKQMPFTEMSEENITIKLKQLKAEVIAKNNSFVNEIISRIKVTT
T1 sequence (P52701 whole entry, chain 2 of 2): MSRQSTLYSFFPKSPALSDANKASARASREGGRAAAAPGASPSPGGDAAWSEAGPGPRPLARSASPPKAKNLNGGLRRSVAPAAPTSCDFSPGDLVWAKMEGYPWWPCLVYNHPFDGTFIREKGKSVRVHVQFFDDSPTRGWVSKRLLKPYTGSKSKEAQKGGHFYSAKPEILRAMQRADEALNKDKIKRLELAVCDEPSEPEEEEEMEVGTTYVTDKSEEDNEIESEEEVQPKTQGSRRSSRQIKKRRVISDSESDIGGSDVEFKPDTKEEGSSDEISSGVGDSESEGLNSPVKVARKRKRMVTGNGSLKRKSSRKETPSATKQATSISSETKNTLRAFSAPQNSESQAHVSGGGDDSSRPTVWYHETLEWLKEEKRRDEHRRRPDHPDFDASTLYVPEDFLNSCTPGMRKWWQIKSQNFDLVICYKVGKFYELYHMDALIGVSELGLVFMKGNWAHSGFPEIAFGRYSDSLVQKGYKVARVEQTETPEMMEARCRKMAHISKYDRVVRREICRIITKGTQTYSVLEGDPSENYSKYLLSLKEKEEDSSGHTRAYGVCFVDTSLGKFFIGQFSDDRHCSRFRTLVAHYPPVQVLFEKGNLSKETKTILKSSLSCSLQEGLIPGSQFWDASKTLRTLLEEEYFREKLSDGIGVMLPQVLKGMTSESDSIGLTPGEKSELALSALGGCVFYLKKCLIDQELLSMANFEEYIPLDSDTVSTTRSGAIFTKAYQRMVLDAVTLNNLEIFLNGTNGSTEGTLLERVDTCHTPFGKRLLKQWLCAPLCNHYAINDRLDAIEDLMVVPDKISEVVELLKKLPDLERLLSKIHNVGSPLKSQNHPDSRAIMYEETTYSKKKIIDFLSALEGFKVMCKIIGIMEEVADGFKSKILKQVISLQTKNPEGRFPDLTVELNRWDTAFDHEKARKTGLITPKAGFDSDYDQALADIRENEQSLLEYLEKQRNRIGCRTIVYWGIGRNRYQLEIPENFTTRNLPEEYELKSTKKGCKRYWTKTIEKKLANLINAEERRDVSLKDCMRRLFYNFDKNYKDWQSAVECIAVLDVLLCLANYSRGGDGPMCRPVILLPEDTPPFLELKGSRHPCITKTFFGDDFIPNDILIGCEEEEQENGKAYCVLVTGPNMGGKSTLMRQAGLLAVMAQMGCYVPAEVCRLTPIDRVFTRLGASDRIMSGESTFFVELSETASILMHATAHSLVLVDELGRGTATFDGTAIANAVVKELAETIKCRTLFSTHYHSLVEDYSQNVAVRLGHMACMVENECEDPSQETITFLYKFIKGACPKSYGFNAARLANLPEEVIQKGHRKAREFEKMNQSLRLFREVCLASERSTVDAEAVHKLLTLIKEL

Binder | binding result [1] | binding result [2]
B1 | binds | 
B2 |  | binds
B3 | binds | 
